Results published in article PMC5377317, “Generation of Aptamers from A Primer-Free Randomized ssDNA Library Using Magnetic-Assisted Rapid Aptamer Selection”.

Target: T1, C-reactive protein (CRP) (human, UniProt P02741 19-224)
T1 sequence: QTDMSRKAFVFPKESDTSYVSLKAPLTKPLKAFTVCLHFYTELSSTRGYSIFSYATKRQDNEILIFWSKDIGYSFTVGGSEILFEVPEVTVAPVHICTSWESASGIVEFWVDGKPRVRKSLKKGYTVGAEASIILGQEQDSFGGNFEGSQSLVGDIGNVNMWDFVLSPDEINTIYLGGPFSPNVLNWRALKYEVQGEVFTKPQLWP
Test: magnetic bead pull-down with q-PCR, saturation fit; apparent Kd; 2 mM MgCl2; CRP-MNPs; BD buffer: 50 mM NaH2PO4 pH 8.0, 150 mM NaCl, 5 mM KCl, 2 mM MgCl2, 0.05% Tween-20; room temperature, 30 min; aptamer 1.5625-200 nM
Settings: protein: commercial; tags: biotinylated (EZ-Link Sulfo-NHS-Biotin), on streptavidin magnetic nanoparticles; chain copies: 5; single strand, small loop predicted by Mfold (dG -2.93 kcal/mol)

GTTGACGGGCGATTGGTCTT (ssDNA) [PF20N-RO-MARAS-84-1]
Kd: 23.6 ± 0.82 nM
